This passage reports IC50, in vitro neutralization assay (In-Vitro Potency), Kd and IC50 results from US20160002326A1.

For assay [1], the target named is rabbit IL-17 (rabbit). Description: cell-based or functional assay.
Assay [2] deals with rabbit IL-17 (rabbit). Nature of the assay: Biacore SPR, 3 experiments; unit not printed in Table 10.
A further assay addresses mouse IL-17 (mouse) (UniProt Q62386). Description: assay not stated (Table 5, 'Source And Binding Information').

Chain of ABBV-257 anti-human TNF and IL-17 DVD-Ig binding protein (bispecific antibody) (heavy): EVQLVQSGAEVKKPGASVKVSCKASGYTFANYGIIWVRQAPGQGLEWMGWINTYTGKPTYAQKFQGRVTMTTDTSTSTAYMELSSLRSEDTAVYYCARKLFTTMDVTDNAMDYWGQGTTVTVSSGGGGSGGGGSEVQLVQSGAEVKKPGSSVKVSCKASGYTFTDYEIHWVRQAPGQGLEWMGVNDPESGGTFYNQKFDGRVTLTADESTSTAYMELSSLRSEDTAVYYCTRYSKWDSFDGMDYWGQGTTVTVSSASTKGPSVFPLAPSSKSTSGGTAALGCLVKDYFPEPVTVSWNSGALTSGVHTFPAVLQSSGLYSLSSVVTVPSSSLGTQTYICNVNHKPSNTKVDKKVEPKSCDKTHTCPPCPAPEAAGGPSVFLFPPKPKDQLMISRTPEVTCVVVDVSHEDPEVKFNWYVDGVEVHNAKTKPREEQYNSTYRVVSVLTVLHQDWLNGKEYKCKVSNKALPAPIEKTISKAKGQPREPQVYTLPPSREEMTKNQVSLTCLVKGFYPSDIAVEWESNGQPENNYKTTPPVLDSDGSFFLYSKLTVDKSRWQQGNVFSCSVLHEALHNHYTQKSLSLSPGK
Chain of ABBV-257 anti-human TNF and IL-17 DVD-Ig binding protein (bispecific antibody) (light): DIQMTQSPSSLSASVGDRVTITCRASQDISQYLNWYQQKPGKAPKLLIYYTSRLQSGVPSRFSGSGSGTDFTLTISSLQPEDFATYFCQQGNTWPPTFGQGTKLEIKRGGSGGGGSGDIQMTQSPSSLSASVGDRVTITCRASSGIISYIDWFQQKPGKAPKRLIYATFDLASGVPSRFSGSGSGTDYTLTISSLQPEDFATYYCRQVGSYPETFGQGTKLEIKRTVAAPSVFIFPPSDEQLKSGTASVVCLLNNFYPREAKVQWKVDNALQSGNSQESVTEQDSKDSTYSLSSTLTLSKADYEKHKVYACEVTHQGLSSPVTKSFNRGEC
Chain of mouse IL-17 (mouse) (Q62386 26-158 limits assumed): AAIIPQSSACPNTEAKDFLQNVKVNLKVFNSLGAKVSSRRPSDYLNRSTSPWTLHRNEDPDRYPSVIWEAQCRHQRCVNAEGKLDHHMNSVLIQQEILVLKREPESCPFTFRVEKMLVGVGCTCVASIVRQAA

In the assay with rabbit IL-17 (rabbit) [1], “ABBV-257 anti-human TNF and IL-17 DVD-Ig binding protein (bispecific antibody)” yielded an IC50, in vitro neutralization assay (In-Vitro Potency) of 11.4 nM. For the same substance, the Kd (in general, the free concentration of one partner at which half of the binding sites on the other are occupied at equilibrium, for simple one-to-one binding) in the assay with rabbit IL-17 (rabbit) [2] came out at 3.3 nM.
For MAB421 anti-IL-17 antibody, the IC50 (usually the concentration that gives 50% inhibition) with mouse IL-17 (mouse) came to 0.7 nM.
